Measurements: patent publication US20220396782

Test system: variant Cas12i2 (RNP, exact variant not stated in Examples 1-5)
Assay: cell_activity
Details: HEK293T RNP 10 uM, 3 days

Sequence: AGAAAUCCGUCUUUCAUUGACGGGUAUAUCCCUUCUACAAAUU / GTATATCCCTTCTACAAATT / AATTTGTAGAAGGGATATAC [E3T3 Cas12i2 crRNA ; TTR E3T3 target]
- activity (PAM 5'-TTN (CTTT)): > 80 % indels

Sequence: AGAAAUCCGUCUUUCAUUGACGGAGGUCCACUGGAGGAGAAGU / AGGTCCACTGGAGGAGAAGT / ACTTCTCCTCCAGTGGACCT [E4T6 Cas12i2 crRNA ; TTR E4T6 target]
- activity (PAM 5'-TTN (CTTC)): > 80 % indels

Sequence: AGAAAUCCGUCUUUCAUUGACGGUAGAUGCUGUCCGAGGCAGU / TAGATGCTGTCCGAGGCAGT / ACTGCCTCGGACAGCATCTA [E2T3 Cas12i2 crRNA ; TTR E2T3 target]
- activity (PAM 5'-TTN (GTTC)): > 80 % indels
